Assay results published in article PMC9482650, “Quantitative fragmentomics allow affinity mapping of interactomes” (Nature Communications, 2022).

How the values were obtained:
Experiment in all cases: holdup assay
Design in all cases: key: below the threshold = too weak to quantify, mostly under pKd 3.1 to 4
Settings in all cases: plain residues with an end cap or a label only (N-terminal biotin on a linker: ado-ado)
DLG1_1, Q12959 = target: DLG1_1, Q12959
DLG4_3, P78352 = target: DLG4_3, P78352
Sequence of DLG4_3, P78352 (P78352 306-403): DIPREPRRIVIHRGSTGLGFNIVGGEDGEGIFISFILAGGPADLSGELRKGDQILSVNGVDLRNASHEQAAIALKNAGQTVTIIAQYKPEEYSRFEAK

DLG5_1, Q8TDM6 = target: DLG5_1, Q8TDM6
Sequence of DLG5_1, Q8TDM6 (Q8TDM6 617-713): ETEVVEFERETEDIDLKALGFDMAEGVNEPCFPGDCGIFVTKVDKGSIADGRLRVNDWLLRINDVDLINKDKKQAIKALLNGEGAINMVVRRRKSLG

FRMPD1, Q5SYB0 = target: T1, FRMPD1, Q5SYB0
T1 sequence (Q5SYB0 52-145, limits assumed, looked up): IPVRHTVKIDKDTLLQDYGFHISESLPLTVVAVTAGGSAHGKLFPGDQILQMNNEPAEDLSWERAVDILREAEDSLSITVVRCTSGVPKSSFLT

GOPC, Q9HD26 = target: GOPC, Q9HD26
GORASP1, Q9BQQ3 = target: GORASP1, Q9BQQ3
Sequence of GORASP1, Q9BQQ3 (Q9BQQ3 1-208): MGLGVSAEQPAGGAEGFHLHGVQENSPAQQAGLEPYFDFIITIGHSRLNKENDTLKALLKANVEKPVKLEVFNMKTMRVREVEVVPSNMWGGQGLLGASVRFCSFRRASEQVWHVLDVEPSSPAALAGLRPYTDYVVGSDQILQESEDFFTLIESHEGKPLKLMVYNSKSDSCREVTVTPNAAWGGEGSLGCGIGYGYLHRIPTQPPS

GORASP2, Q9H8Y8 = target: GORASP2, Q9H8Y8
GRIP1_2, Q9Y3R0 = target: T2, GRIP1_2, Q9Y3R0
T2 sequence (Q9Y3R0 145-248, limits assumed, looked up): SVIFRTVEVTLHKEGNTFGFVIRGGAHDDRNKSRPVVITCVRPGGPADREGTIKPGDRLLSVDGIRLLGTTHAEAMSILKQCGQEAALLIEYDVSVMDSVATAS

GRIP1_3, Q9Y3R0 = target: T3, GRIP1_3, Q9Y3R0
T3 sequence (Q9Y3R0 247-346, limits assumed, looked up): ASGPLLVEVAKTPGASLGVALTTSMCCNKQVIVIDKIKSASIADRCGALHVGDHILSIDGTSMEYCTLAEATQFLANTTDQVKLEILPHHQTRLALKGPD

GRIP1_5, Q9Y3R0 = target: T4, GRIP1_5, Q9Y3R0
T4 sequence (Q9Y3R0 568-668, limits assumed, looked up): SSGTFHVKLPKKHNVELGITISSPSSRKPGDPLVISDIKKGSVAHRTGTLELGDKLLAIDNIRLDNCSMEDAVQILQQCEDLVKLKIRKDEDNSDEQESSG

HTRA1, Q92743 = target: HTRA1, Q92743
Sequence of HTRA1, Q92743 (Q92743 360-477): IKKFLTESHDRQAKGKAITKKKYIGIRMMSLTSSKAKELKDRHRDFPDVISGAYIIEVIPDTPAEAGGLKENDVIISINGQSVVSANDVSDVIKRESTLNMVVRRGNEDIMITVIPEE

Inadl_10, Q8NI35 = target: Inadl_10, Q8NI35
Sequence of Inadl_10, Q8NI35 (Q8NI35 1673-1763): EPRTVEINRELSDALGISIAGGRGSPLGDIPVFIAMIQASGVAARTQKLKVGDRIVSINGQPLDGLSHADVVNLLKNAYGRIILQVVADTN

LIN7A, O14910 = target: T5, LIN7A, O14910
T5 sequence (O14910 103-200, limits assumed, looked up): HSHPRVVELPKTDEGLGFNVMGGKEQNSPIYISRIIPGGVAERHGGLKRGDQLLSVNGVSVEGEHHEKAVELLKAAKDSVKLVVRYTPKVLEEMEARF

LNX1_1, Q8TBB1 = target: LNX1_1, Q8TBB1
Sequence of LNX1_1, Q8TBB1 (Q8TBB1 261-371): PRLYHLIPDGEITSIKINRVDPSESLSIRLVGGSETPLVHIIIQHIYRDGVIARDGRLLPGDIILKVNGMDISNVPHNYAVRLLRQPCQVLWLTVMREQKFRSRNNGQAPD

LNX1_3, Q8TBB1 = target: LNX1_3, Q8TBB1
Sequence of LNX1_3, Q8TBB1 (Q8TBB1 500-596): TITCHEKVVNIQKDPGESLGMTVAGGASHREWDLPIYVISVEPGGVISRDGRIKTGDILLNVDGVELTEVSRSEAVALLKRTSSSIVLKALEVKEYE

MAGI1_1, Q96QZ7 = target: MAGI1_1, Q96QZ7
Sequence of MAGI1_1, Q96QZ7 (Q96QZ7 1-106): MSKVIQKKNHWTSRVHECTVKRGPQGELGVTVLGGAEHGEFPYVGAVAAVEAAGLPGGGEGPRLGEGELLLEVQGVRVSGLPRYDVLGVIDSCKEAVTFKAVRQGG

MAST2, Q6P0Q8 = target: MAST2, Q6P0Q8
Sequence of MAST2, Q6P0Q8 (Q6P0Q8 1099-1202): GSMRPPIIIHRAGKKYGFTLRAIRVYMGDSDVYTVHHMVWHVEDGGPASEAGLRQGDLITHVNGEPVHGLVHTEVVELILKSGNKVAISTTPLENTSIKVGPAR

NHERF4_2, Q86UT5 = target: NHERF4_2, Q86UT5
Sequence of NHERF4_2, Q86UT5 (Q86UT5 220-308): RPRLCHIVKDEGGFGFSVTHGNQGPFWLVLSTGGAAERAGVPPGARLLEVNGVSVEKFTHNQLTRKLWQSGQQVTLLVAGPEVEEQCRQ

NHERF4_4, Q86UT5 = target: NHERF4_4, Q86UT5
Sequence of NHERF4_4, Q86UT5 (Q86UT5 464-550): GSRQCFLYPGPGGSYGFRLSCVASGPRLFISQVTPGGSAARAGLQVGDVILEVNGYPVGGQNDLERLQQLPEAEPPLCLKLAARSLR

PDLIM1, O00151 = target: PDLIM1, O00151
Sequence of PDLIM1, O00151 (O00151 1-87): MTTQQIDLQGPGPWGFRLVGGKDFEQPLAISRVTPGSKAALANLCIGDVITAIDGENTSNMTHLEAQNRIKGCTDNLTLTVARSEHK

PDZRN3_1, Q9UPQ7 = target: T6, PDZRN3_1, Q9UPQ7
T6 sequence (Q9UPQ7 244-349, limits assumed, looked up): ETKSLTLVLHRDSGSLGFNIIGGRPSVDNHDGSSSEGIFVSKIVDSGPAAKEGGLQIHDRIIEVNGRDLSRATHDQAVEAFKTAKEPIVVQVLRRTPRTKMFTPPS

PDZRN4_1, Q6ZMN7 = target: PDZRN4_1, Q6ZMN7
Sequence of PDZRN4_1, Q6ZMN7 (Q6ZMN7 213-318): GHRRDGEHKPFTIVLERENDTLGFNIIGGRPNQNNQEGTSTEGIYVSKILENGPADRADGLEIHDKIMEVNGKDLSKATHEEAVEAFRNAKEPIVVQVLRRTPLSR

RADIL, Q96JH8 = target: T7, RADIL, Q96JH8
T7 sequence (Q96JH8 971-1071, limits assumed, looked up): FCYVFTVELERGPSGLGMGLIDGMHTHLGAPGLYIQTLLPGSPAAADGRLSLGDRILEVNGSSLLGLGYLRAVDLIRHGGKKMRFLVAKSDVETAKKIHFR

RAPGEF6, Q8TEU7 = target: T8, RAPGEF6, Q8TEU7
T8 sequence (Q8TEU7 525-625, limits assumed, looked up): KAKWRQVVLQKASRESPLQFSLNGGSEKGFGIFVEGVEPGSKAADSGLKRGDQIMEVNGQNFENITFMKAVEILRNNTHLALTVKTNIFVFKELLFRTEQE

RHPN1, Q8TCX5 = target: T9, RHPN1, Q8TCX5
T9 sequence (Q8TCX5 508-602, limits assumed, looked up): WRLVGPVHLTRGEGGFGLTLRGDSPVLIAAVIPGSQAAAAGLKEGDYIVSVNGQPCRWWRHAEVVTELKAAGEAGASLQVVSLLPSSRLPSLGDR

SCRIB_1, Q14160 = target: SCRIB_1, Q14160
Sequence of SCRIB_1, Q14160 (Q14160 718-814): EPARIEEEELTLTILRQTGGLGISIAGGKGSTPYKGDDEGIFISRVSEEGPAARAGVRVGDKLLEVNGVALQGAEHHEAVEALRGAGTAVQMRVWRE

TJP2_1, Q9UDY2 = target: TJP2_1, Q9UDY2
Sequence of TJP2_1, Q9UDY2 (Q9UDY2 24-128): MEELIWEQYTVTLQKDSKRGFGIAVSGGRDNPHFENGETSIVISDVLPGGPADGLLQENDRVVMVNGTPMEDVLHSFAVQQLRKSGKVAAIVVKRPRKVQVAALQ

TJP3_3, O95049 = target: T10, TJP3_3, O95049
T10 sequence (O95049 375-456, limits assumed, looked up): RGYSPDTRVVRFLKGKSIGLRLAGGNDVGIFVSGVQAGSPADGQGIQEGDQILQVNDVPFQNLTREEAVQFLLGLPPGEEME

Row | Binder | pKd (DLG1_1, Q12959) | pKd (DLG4_3, P78352) | pKd (DLG5_1, Q8TDM6) | pKd (FRMPD1, Q5SYB0) | pKd (GOPC, Q9HD26) | pKd (GORASP1, Q9BQQ3) | pKd (GORASP2, Q9H8Y8) | pKd (GRIP1_2, Q9Y3R0) | pKd (GRIP1_3, Q9Y3R0) | pKd (GRIP1_5, Q9Y3R0) | pKd (HTRA1, Q92743) | pKd (Inadl_10, Q8NI35) | pKd (LIN7A, O14910) | pKd (LNX1_1, Q8TBB1) | pKd (LNX1_3, Q8TBB1) | pKd (MAGI1_1, Q96QZ7) | pKd (MAST2, Q6P0Q8) | pKd (NHERF4_2, Q86UT5) | pKd (NHERF4_4, Q86UT5) | pKd (PDLIM1, O00151) | further results
1 | KPDKQEEFYA [SDC3, O75056] | below the threshold | below the threshold | below the threshold | below the threshold | below the threshold | below the threshold | below the threshold | below the threshold | below the threshold | below the threshold | 4.9 | below the threshold | below the threshold | below the threshold | below the threshold | below the threshold | 4.17 | below the threshold | below the threshold | below the threshold | pKd (PDZRN3_1, Q9UPQ7): below the threshold; pKd (PDZRN4_1, Q6ZMN7): below the threshold; pKd (RADIL, Q96JH8): below the threshold; pKd (RAPGEF6, Q8TEU7): below the threshold; pKd (RHPN1, Q8TCX5): below the threshold; pKd (SCRIB_1, Q14160): below the threshold; pKd (TJP2_1, Q9UDY2): below the threshold; pKd (TJP3_3, O95049): below the threshold
2 | RDYTQSSSSL [GRM5, P41594] | below the threshold | below the threshold | below the threshold | below the threshold | 3.55 | below the threshold | below the threshold | below the threshold | below the threshold | below the threshold | below the threshold | below the threshold | below the threshold | below the threshold | below the threshold | below the threshold | 5.15 | below the threshold | below the threshold | below the threshold | pKd (PDZRN3_1, Q9UPQ7): 3.56; pKd (PDZRN4_1, Q6ZMN7): below the threshold; pKd (RADIL, Q96JH8): below the threshold; pKd (RAPGEF6, Q8TEU7): below the threshold; pKd (RHPN1, Q8TCX5): 3.51; pKd (SCRIB_1, Q14160): below the threshold; pKd (TJP2_1, Q9UDY2): below the threshold; pKd (TJP3_3, O95049): below the threshold
3 | DSEEELPTRL [GRK6, P43250] | below the threshold | below the threshold | below the threshold | below the threshold | 3.83 | below the threshold | below the threshold | below the threshold | below the threshold | below the threshold | 4.18 | below the threshold | below the threshold | 3.82 | below the threshold | below the threshold | 4.83 | below the threshold | below the threshold | below the threshold | pKd (PDZRN3_1, Q9UPQ7): below the threshold; pKd (PDZRN4_1, Q6ZMN7): below the threshold; pKd (RADIL, Q96JH8): below the threshold; pKd (RAPGEF6, Q8TEU7): below the threshold; pKd (RHPN1, Q8TCX5): 3.55; pKd (SCRIB_1, Q14160): 3.53; pKd (TJP2_1, Q9UDY2): below the threshold; pKd (TJP3_3, O95049): below the threshold
